Test results taken from patent US20050154187A1.

Tests used:
[1] = molecular target: soluble VEGF receptor KDR (sKDR) (UniProt P35968); test: ELISA, plate-coated sKDR, detection with DHFR-specific mAb
[2] = molecular target: soluble VEGF receptor Flt-1 (sFlt-1) (UniProt P17948); test: ELISA, plate-coated sFlt-1, detection with DHFR-specific mAb

Chain of dihydrofolate reductase (DHFR), negative control protein (P00375 1-186 limits assumed): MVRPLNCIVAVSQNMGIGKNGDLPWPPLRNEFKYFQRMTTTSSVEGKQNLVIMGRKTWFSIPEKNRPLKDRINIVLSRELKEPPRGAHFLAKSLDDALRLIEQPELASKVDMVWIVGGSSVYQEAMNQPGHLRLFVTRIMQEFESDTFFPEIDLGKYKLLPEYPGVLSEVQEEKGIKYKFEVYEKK

OD492 nm [1]: 0.074 OD492 nm
OD492 nm [2]: 0.088 OD492 nm
Substance: dihydrofolate reductase (DHFR), negative control protein (from UniProt P00375 1-186) (enzyme)
